According to paper PMC5875850, “Insights into DNA substrate selection by APOBEC3G from structural, biochemical, and functional studies”:

How the values were obtained:
[1] = target: Pot1-A3GCTD fusion (Pot1A3GCTD) (Schizosaccharomyces pombe (Pot1) / Homo …, UniProt O13988 1-185+Q9HC16:195-384, L234K;C243A;F310K;C321A;C356A;internal_change); assay: size exclusion chromatography; Kinetic Kd: 20 mM Tris pH 8.0, 1 mM DTT, 37 C, 1-50 uM enzyme, 40 nM DNA; SEC/complex: 50 mM Tris pH 7.0, 100 mM NaCl, 0.1 mM TCEP (stated for the Pot1-A3GCTD gel filtration); crystals 20 C, 100 mM HEPES pH 7, 200 mM LiCl, 20% PEG 6000; conditions: protein: recombinant; tags: His6-Staph nuclease tag removed by SARS-CoV Mpro; single strand
Chain of Pot1-A3GCTD fusion (Pot1A3GCTD) (O13988 other isoform, or with tags, fused parts or gaps L234K;C243A;F310K;C321A;C356A;): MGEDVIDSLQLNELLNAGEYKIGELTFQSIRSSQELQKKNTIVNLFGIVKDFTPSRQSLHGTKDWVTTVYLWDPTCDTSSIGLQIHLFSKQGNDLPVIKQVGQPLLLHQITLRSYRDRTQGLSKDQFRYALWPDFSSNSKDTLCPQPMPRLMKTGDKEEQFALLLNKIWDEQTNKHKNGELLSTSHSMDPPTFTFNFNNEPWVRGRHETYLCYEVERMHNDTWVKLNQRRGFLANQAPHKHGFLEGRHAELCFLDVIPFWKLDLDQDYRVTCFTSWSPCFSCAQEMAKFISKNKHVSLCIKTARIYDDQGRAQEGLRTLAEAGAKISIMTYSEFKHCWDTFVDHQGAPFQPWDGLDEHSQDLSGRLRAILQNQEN

[2] = target: A3GCTD WT (A3G191-384-2K3A) (Homo sapiens, UniProt Q9HC16 191-384, L234K;C243A;F310K;C321A;C356A); assay: single-turnover deamination kinetics (kobs vs [E], hyperbolic fit); Kinetic Kd: 20 mM Tris pH 8.0, 1 mM DTT, 37 C, 1-50 uM enzyme, 40 nM DNA; SEC/complex: 50 mM Tris pH 7.0, 100 mM NaCl, 0.1 mM TCEP (stated for the Pot1-A3GCTD gel filtration); crystals 20 C, 100 mM HEPES pH 7, 200 mM LiCl, 20% PEG 6000; conditions: protein: recombinant; tags: His6-MBP tag removed by SARS-CoV Mpro; label: 5' 32P; single strand
Chain of A3GCTD WT (A3G191-384-2K3A) (Q9HC16 191-384 L234K/C243A/F310K/C321A/C356A, one chain of several): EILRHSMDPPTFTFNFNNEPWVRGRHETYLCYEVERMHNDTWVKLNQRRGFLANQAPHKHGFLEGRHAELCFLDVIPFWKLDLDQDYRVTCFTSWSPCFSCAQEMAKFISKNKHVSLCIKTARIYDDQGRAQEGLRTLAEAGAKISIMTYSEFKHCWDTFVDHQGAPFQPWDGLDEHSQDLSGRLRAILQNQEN

| Binder | binding result [1] | Kd [2] |
| --- | --- | --- |
| AGAAGACCCAAAGAAGAGGAAGCAGGTTAC (ssDNA) [30nt Pot1/A3G substrate (CCCA + GGTTAC)] | binds |  |
| TAGAAAGGGAGACCCAAAGAGGAAAGGTGA (ssDNA) [CCCA 30-mer] |  | 26 µM |
